Measured values as given in patent US7332335.

Target: p53, P04637
Sequence (P04637 whole entry, looked up): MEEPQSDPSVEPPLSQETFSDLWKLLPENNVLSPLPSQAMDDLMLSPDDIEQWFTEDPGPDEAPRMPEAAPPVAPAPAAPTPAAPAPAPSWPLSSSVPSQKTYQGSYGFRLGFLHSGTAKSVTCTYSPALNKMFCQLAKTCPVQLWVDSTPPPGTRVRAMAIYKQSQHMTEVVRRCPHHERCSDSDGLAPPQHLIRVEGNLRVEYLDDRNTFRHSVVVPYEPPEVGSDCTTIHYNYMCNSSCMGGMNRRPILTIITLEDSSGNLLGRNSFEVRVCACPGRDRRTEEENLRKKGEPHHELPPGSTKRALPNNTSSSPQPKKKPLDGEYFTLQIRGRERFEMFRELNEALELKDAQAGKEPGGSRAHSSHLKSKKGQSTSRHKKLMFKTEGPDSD

B1: recombinant PP5 (protein phosphatase 5) (protein)
chain: MAMAEGERTECAEPPRDEPPADGALKRAEELKTQANDYFKAKDYENAIKFYSQAIELNPSNAIYYGNRSLAYLRTECYGYALGDATRAIELDKKYIKGYYRRAASNMALGKFRAALRDYETVVKVKPHDKDAKMKYQECNKIVKQKAFERAIAGDEHKRSVVDSLDIESMTIEDEYSGPKLEDGKVTISFMKELMQWYKDQKKLHRKCAYQILVQVKEVLSKLSTLVETTLKETEKITVCGDTHGQFYDLLNIFELNGLPSETNPYIFNGDFVDRGSFSVEVILTLFGFKLLYPDHFHLLRGNHETDNMNQIYGFEGEVKAKYTAQMYELFSEVFEWLPLAQCINGKVLIMHGGLFSEDGVTLDDIRKIERNRQPPDSGPMCDLLWSDPQPQNGRSISKRGVSCQFGPDVTKAFLEENNLDYIIRSHEVKAEGYEVAHGGRCVTVFSAPNYCDQMGNKASYIHLQGSDLRPQFHQFTAVPHPNVKPMAYANTLLQLGMM
- dephosphorylation of p53 in vitro: recombinant PP5 can dephosphorylate p53 in vitro
